# Reference: publication PMC9219861
# Molecular target: ULK1 (UniProt O75385)
# Experiment: FLAG co-IP, ULK1 blot
# Conditions: reference: Flag-CHK2 WT, EBSS; sites T68
substance,measurement,value
"CHK2 (from UniProt O96017) Flag-CHK2 T68A, EBSS",binding against the reference,weaker
